The values below come from the RNAGym collection of RNA variant scans (doi:10.1093/nar/gkz1192).

Sequences and labels used below:
B1: CPEB3 Ribozyme (parent)
chain: UAACAGGGGGCCACAGCAGAAGCGUUCACGUCGCAGCCCCUGUCAGAUUCUGGUGAAUCUGCGAAUUCUGCUGUAUAUCUC

Variants of B1 are the subject of this series. As to the kind of experiment: self-cleavage, relative activity (ratio to wild type); higher = more cleavage; in vitro, sequencing. In a few lines: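 After error-prone PCR and barcoding, CPEB3 ribozyme mutant libraries were transcribed with T7 RNA polymerase at 37°C for 5 hours, then given 15 min with DNase I before an EDTA stop, and they cleaved during both steps. Reverse transcription with template switching preceded Illumina sequencing. Relative activity divides a variant's cleaved/total read fraction by the unmutated ribozyme's. At least 5 reads were required per variant, and three batches were averaged.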
As for UAACAGGGGGCCGCAGCAGAAGCGUUCACGUCGCAGCCCCUGUCAGAUUCUGGUGAAUCUGCGUAUUCUGCUGUAUAUCUC, the self-cleavage was 0.32.
As to UAACAGGGGGCCGCAGCAGAAGCGUUCACGUCGCAGCCCCUGUCAGAUUCUGGUGAAUCUGCGCAUUCUGCUGUAUAUCUC, the self-cleavage was found to be 0.46.
With UAACAGGGGGCCGCAGCAGAAGCGUUCACGUCGCAGCCCCUGUCAGAUUCUGGUGAAUCUGCGGAUUCUGCUGUAUAUCUC the figure was 0.76; with UAACAGGGGGCCGCAGCAGAGGCGUUCACGUCGCAGCCCCUGUCAGAUUCUGGUGAAUCUGCGAAUUCUGCUGUAUAUCUC, 0.5; with UAACAGGGGGCCGCAGCAGAUGCGUUCACGUCGCAGCCCCUGUCAGAUUCUGGUGAAUCUGCGAAUUCUGCUGUAUAUCUC, 0.35.
UAACAGGGGGCCGCAGCAGAAGCGUUCACGUCGCAGCCCCUGUCAGAUUCUGGUGAAUCUGCGAGUUCUGCUGUAUAUCUC: the self-cleavage was 0.41.
Consider UAACAGGGGGCCGCAGCAGAAGCGUUCACGUCGCAGCCCCUGUCAGAUUCUGGUGAAUCUGCGAUUUCUGCUGUAUAUCUC, for which the self-cleavage was found to be 0.31.
Consider UAACAGGGGGCCGCAGCAGAAGCGUUCACGUCGCAGCCCCUGUCAGAUUCUGGUGAAUCUGCGACUUCUGCUGUAUAUCUC, for which the self-cleavage is 0.56.
For UAACAGGGGGCCGCAGCAGAAGCGUUCACGUCGCAGCCCCUGUAAGAUUCUGGUGAAUCUGCGAAUUCUGCUGUAUAUCUC, the self-cleavage worked out at 0.24.
On to UAACAGGGGGCCGCAGCAGAAGCGUUCACGUCGCAGCCCCUGUUAGAUUCUGGUGAAUCUGCGAAUUCUGCUGUAUAUCUC, for which the self-cleavage stood at 0.32.
In the case of UAACAGGGGGCCGCAGCAGAAGCGUUCACGUUGCAGCCCCUGUCAGAUUCUGGUGAAUCUGCGAAUUCUGCUGUAUAUCUC, the self-cleavage was 0.18.
As to UAACAGGGGGCCGCAGCAGAAGCGUUCACGUAGCAGCCCCUGUCAGAUUCUGGUGAAUCUGCGAAUUCUGCUGUAUAUCUC, the self-cleavage was 0.16.
For UAACAGGGGGCCGCAGCAGGAGCGUUCACGUCGCAGCCCCUGUCAGAUUCUGGUGAAUCUGCGAAUUCUGCUGUAUAUCUC, the self-cleavage worked out at 0.6.
In the case of UAACAGGGGGCCGCAGCAGCAGCGUUCACGUCGCAGCCCCUGUCAGAUUCUGGUGAAUCUGCGAAUUCUGCUGUAUAUCUC, the self-cleavage came out at 0.27.
With UAACAGGGGGCCGCAGCAGUAGCGUUCACGUCGCAGCCCCUGUCAGAUUCUGGUGAAUCUGCGAAUUCUGCUGUAUAUCUC the figure was 0.28; with UAACAGGGGGCCGCAGUAGAAGCGUUCACGUCGCAGCCCCUGUCAGAUUCUGGUGAAUCUGCGAAUUCUGCUGUAUAUCUC, 0.51; with UAACAGGGGGCCGCAGAAGAAGCGUUCACGUCGCAGCCCCUGUCAGAUUCUGGUGAAUCUGCGAAUUCUGCUGUAUAUCUC, 0.38.
With UAACAGGGGGCCGCAGGAGAAGCGUUCACGUCGCAGCCCCUGUCAGAUUCUGGUGAAUCUGCGAAUUCUGCUGUAUAUCUC the figure was 0.13.
Consider UAACAGGGGGCCGCAGCAGAAGCGUUCACGUCGCAGCGCCUGUCAGAUUCUGGUGAAUCUGCGAAUUCUGCUGUAUAUCUC, for which the self-cleavage is 0.28.
For UAACAGGGGGCCGCAGCAGAAGCGUUCACGUCGCAGCUCCUGUCAGAUUCUGGUGAAUCUGCGAAUUCUGCUGUAUAUCUC the value was 0.83.
With UAACAGGGGGCCGCAGCAGAAGCGUUCACGUCGCAGCACCUGUCAGAUUCUGGUGAAUCUGCGAAUUCUGCUGUAUAUCUC the figure was 0.13.
With UAACAGGGGGCCGCAGCAGAAGCGUUCACGUCGCAGCCCCUGUCAGAUUCUGGUGAAUCUGCGAAUUCUGCUGUGUAUCUC, the self-cleavage worked out at 1.03.
As to UAACAGGGGGCCGCAGCAGAAGCGUUCACGUCGCAGCCCCUGUCAGAUUCUGGUGAAUCUGCGAAUUCUGCUGUCUAUCUC, the self-cleavage was 1.03.
For UAACAGGGGGCCGCAGCAGAAGCGUUCACGUCGCAGCCCCUGUCAGAUUCUGGUGAAUCUGCGAAUUCUGCUGUUUAUCUC the value was 0.99; for UAACAGGGGGCCGCAGCAGAAGCGUUCACGUCGCAGCCCCUGUCAGAUUCUGGUGAAUCUGCGAAUUCUGCUGUAUCUCUC, 0.62.
As for UAACAGGGGGCCGCAGCAGAAGCGUUCACGUCGCAGCCCCUGUCAGAUUCUGGUGAAUCUGCGAAUUCUGCUGUAUUUCUC, the self-cleavage amounted to 0.92.
As for UAACAGGGGGCCGCAGCAGAAGCGUUCACGUCGCAGCCCCUGUCAGAUUCUGGUGAAUCUGCGAAUUCUGCUGUAUGUCUC, the self-cleavage worked out at 0.69.
For UAACAGGGGGCCGCGGCAGAAGCGUUCACGUCGCAGCCCCUGUCAGAUUCUGGUGAAUCUGCGAAUUCUGCUGUAUAUCUC the value was 0.35.
With UAACAGGGGGCCGCUGCAGAAGCGUUCACGUCGCAGCCCCUGUCAGAUUCUGGUGAAUCUGCGAAUUCUGCUGUAUAUCUC, the self-cleavage was found to be 0.43.
For UAACAGGGGGCCGCAGCAGAAGCGUUCAGGUCGCAGCCCCUGUCAGAUUCUGGUGAAUCUGCGAAUUCUGCUGUAUAUCUC the value was 0.11; for UAACAGGGGGCCGCAGCAGAAGCGUUCAAGUCGCAGCCCCUGUCAGAUUCUGGUGAAUCUGCGAAUUCUGCUGUAUAUCUC, 0.3.
Take UAACAGGGGGCCGCAGCAGAAGCGUUCAUGUCGCAGCCCCUGUCAGAUUCUGGUGAAUCUGCGAAUUCUGCUGUAUAUCUC: the self-cleavage was determined as 0.33.
For UAACAGGGGGCCGCAGCAGAAGCGUUCACGUCGCAGCCCCUGUCUGAUUCUGGUGAAUCUGCGAAUUCUGCUGUAUAUCUC the value was 0.4; for UAACAGGGGGCCGCAGCAGAAGCGUUCACGUCGCAGCCCCUGUCCGAUUCUGGUGAAUCUGCGAAUUCUGCUGUAUAUCUC, 0.34.
